The values that follow come from PMC7039410 (Nature, 2019).

The data set “AUC” deals with the molecule itself. As to the kind of experiment: AUC.
In data set [1] the target is histone H2B, in the mononucleosome (X. laevis, UniProt P02281 2-126). Kind of data set: cross-linking.

B1: Swi6 (natural protein)
chain: MKKGGVRSYRRSSTSKRSVIDDDSEPELPSMTKEAIASHKADSGSSDNEVESDHESKSSSKKLKENAKEEEGGEEEEEDEYVVEKVLKHRMARKGGGYEYLLKWEGYDDPSDNTWSSEADCSGCKQLIEAYWNEHGGRPEPSKRKRTARPKKPEAKEPSPKSRKTDEDKHDKDSNEKIEDVNEKTIKFADKSQEEFNENGPPSGQPNGHIESDNESKSPSQKESNESEDIQIAETPSNVTPKKKPSPEVPKLPDNRELTVKQVENYDSWEDLVSSIDTIERKDDGTLEIYLTWKNGAISHHPSTITNKKCPQKMLQFYESHLTFRENE
A word on the stoichiometry N: it is a count of units in the complex or per binding partner. With B1, in the data set “AUC”, the “stoichiometry N” value was 2. Besides, the binding result in data set [1] is given as “binds”.
